The values below come from the nanobody polyreactivity screen of Harvey et al. (2022).

A short description of this data set: yeast display, Sf9 membrane polyspecificity reagent, FACS + sequencing; frameworks hold sequencing errors. In short, it runs like this:
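A synthetic nanobody library was expressed on Saccharomyces cerevisiae BJ5465 by galactose induction for 36–48 hours. The library was stained for 1 hour at 4 °C with 10% biotinylated, detergent-solubilized Sf9 membrane reagent and enriched with streptavidin microbeads before FACS. Low and high (top ~1%) gates were set on anti-HA fluorescence for expression and streptavidin fluorescence for reagent binding, and each polyreactivity label reflects the gate of origin.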
For the sequence “QVQLVESGGVLVQAGGSLRLSCAASGFTFWLYAMGWYRQAPGKERELVAAISSGGGSTYYADSVKGRFTNSRDNAKNTVYLQMNSLKPEDTAVYYCNRYYYYGYDWGQGTQVTVSS”, the “polyreactivity (PSR sort gate)” value is listed as “high polyreactivity”.

Regarding “QVQLVESGGVLVQAGGSLRLSCAASGIIFYRNAMGWYRQAPGKERELVAAITSSGGRTYYADSVKGRFTISRDNAKNTVYLQMNSLKPEDTAVYYCAATRLYWKIFYGDGDYWGQGTQVTVSS”, the “polyreactivity (PSR sort gate)” value is reported as “high polyreactivity”.

“QVQLVESGGVLVQAGGSLRLSCAASGITFSRNAMGWYRQAPGKEMELVAAITWNGGRTYYADSVKGRFTISRDNAKNTVYLPMNSLKPEATAVYYCAADYDYPDYYAPSWPGYNYWGQVTQVTVSS”: the “polyreactivity (PSR sort gate)” value is “low polyreactivity”.

Turning to “QVQLVESGGVLVQAGGSLRLSCAASGLICVPYSMGWYRQAPGKERELVAAISWRGGITYYADSVKGRFTISRDNAKNNVYLQMNSLKPEDTAVYYCAADGPYTGDGALDYWGQGTQVTVSS”, the “polyreactivity (PSR sort gate)” value was “high polyreactivity”.

For the sequence “QVQLVESGGVLVQAGGSLRLSCAASGRTFIFYAMGWYRQAPRKERELVAAITYSGTSTYYADSVKGRFTISRDNAKNTVYLQMNSLKPEDTAVYYCAKDGQRDANYYWGQGTQVTVSS”, the “polyreactivity (PSR sort gate)” value is “low polyreactivity”.

Take “QVQLVESGGVLVQAGGSLRLSCAASGRTFPTYAMGCSRPAPGKERELVAAITSGGSTYYADTVKGRFTISRDKAKNTVYLQMTSLKPEDTAVYYCAAISTWGTKYDYWGQGTQVTVSS”: the “polyreactivity (PSR sort gate)” value is recorded as “high polyreactivity”.

Consider “QVQLVESGGVLVQAGGSLRLSCAASGRTFRYYVKGWYRRAPGKERELLASITSNGDSTYYADSVKGRFTISRDNAKNTVYLQMNSLKPEDTAVYYCAVRWRDYRGSYRGFEYWGQGTQVTVSS”, for which the “polyreactivity (PSR sort gate)” value is recorded as “high polyreactivity”.

Take “QVQLVESGGVLVQAGGSLRLSCAASGRTLRPYAMGWYRQAPGKERELVAAMTGGVSTDYADSVKGRFTISRDNAKNTVYLQRNSLKPEDTAVYYGAVDDRWFNHISGRYYEYYYWGQGTQVTVSS”: the “polyreactivity (PSR sort gate)” value was “low polyreactivity”.

Regarding “QVQLVESGGVLVQAGGSLRLSCAASGSIFKRNVMGWYRQAPGKERELVAAITWSGASTYYADSVKGRFTISRDNAKNTVYLQMNSLKPEDTAVYYCAARGPSRRRDGSDYWGQGTQVTVSS”, the “polyreactivity (PSR sort gate)” value is recorded as “high polyreactivity”.

As for “QVQLVESGGVLVQAGGSLRLSCAASGSIFRTNVMGWYSQAPGKEREMVASISSDSSTNYADSVKGRFTISRDNEKNTVYLQMNSLKPEDTAVYYCAKDPVVTEHYYWGQGTQVTVSS”, the “polyreactivity (PSR sort gate)” value is given as “low polyreactivity”.

In the case of “QVQLVESGGVLVQAGGSLRLSCAASGSIFVYYGMGWYRQAPGKEREFVAAIWTGGSTYYADSVKGRFTISRDNAKNTVYLQMNSLKPEDTAVYYCAADRRGSHYYRYKYGYWGQGTQVTVSS”, the “polyreactivity (PSR sort gate)” value is reported as “high polyreactivity”.

Regarding “QVQLVESGGVLVQAGGSLRLSCAASGSLFTRYAMGGYRQAPGKVRELVAAISKSGTTTYYADSVKGRFTISRDNAKNTVYLQMNSLIPEDTAVYYCAAVPIAGKMDYWGQGTQVTVSS”, the “polyreactivity (PSR sort gate)” value is “high polyreactivity”.

Regarding “QVQLVESGGVLVQAGGSLRLTCAASGFTFSRNTMGWYRQAPGKERELVAAIDSTGGSTYYADSVKGRFTISRDNAKNTVYLQMNSLKPEDTAVYYCATVLPDGRVWYEGYYWGQGTQVTVSS”, the “polyreactivity (PSR sort gate)” value is “low polyreactivity”.

In the case of “QVQLVESGGVLVQEGGSLRLSCAASVSIFSRNAMGSYRQAPGKERELVAAISYSGGSTYYADSVKGRLTISRDNAKNTVYLQMNSLKPEDTEVYYCAAYGHHFQGDYNYWGQGTQVTVSS”, the “polyreactivity (PSR sort gate)” value is “low polyreactivity”.

Consider “QVQLVESGGVLVQPRGSLRLICAASGSTLAGNAMGWYRQAPGKEREFVAAISWSGGRTYYADSVKGRFTISRDNAKMTVYLQMNRMKPEDTAVYYCAARRGQTRYQYYYWGQGTQVTVSS”, for which the “polyreactivity (PSR sort gate)” value is “high polyreactivity”.

Regarding “QVQLVESGGVVVQAGGSLRLSCAASGFTIDYYAMGWYRQARGQERELVATINGASYTNYADSVKGRFTISRDNAKNTVYLQMNSLKPEDTAVYYCNARYYGPDFVLAYDYWGQGTQVTVSS”, the “polyreactivity (PSR sort gate)” value is reported as “low polyreactivity”.

Take “QVQLVESGLGLLQAGGSLRLSCAASGFIFRLYTMGRYREAPGKVRELVASISSAGSTNYADSVKGRFTISLDNAKNTVYLQMNSLKPDDTAVYDCDKYYGQFYPPTLGYWGQCTQVTVSS”: the “polyreactivity (PSR sort gate)” value is “low polyreactivity”.

Regarding “QVQLVESGRALVQAGGSLRLSCAASGRICGIYSMGWNRQAPGKEREFVAAISDRSGSRTYYADSVKGRFTISRDNAKNTVYLQMNSLKPEDTAVYYCNARHQYQTLYPGGYYWGQGTQVTVSS”, the “polyreactivity (PSR sort gate)” value is reported as “high polyreactivity”.

In the case of “QVQLVESGRALVQAGGSLRLSCAASGSTSRIYALGWYRQAPWKERELVAALTRSGGSTYYADSVKGRFTISRDNAKNTVYLQMNSLKPEDTAVYYCAADYRSHSRYRYDKVDYWGQGTQVTVSS”, the “polyreactivity (PSR sort gate)” value is listed as “high polyreactivity”.

As to “QVQLVESGRALVQAGGSLRLSCASSVRIFVRNAMGWYRQAPGKESELVAAISARGGRTNYADSVKGRFTISRDNAKNTVYLQMNSLKPDDTAVYYCAAVGFRAAYLYDYWGQGTQVTVSS”, the “polyreactivity (PSR sort gate)” value was “high polyreactivity”.

For “QVQLVESGRGIVQAGGSLRISWAASGITLAGYVMGLYRQAPGKESELVADISSSGDSTYYADSVKGRFTMSRDNAKNTVYLQMNSLKPEDTAVYYCAAKCGRTGSFDYWGQGTQVTVSS”, the “polyreactivity (PSR sort gate)” value is given as “low polyreactivity”.

Consider “QVQLVESGRGIVQAGGSLRLSCAASGLTFSSNAMVWYRQAPGKEREMVAVITNGGSTNYADSVKGRFTISRDNAKNTVYLQMNSLKPEDTAVYYCAKDGGPAQDIGMDYWGQGTQVTVSS”, for which the “polyreactivity (PSR sort gate)” value is “low polyreactivity”.

Turning to “QVQLVESGRGLFQAGGSLRLSCAASGFTFSLYAMGWYRQPPGKERELVAVISYRGGSTYYAYSVKGRFTISRDNAKNTVYLQMNSLKPEVTAVYYCARVVLHFSRYWWPVDYWGQGTQVTVSS”, the “polyreactivity (PSR sort gate)” value is given as “high polyreactivity”.

For “QVQLVESGRGLFQAGGSLRLSCAASGSTFSGYAMGWYRPAPGKERELVATITRRGGNTYYADSVKGRFTISRDNAKNTVYLQMNSLKPEDTAVYYCSKDGRVHSPYDYWGQGTQVTVSS”, the “polyreactivity (PSR sort gate)” value is “low polyreactivity”.

With “QVQLVESGRGLGQAGGSLRLSCAASVSTFDKYDKGRSRQAPGKEREFVAAISSTGASTYYADSVKGRFTISRDNAKNTVYLQMNSLKPEDTAVYYCAADVPVGYGDDYWGQGTQVTESS”, the “polyreactivity (PSR sort gate)” value is reported as “low polyreactivity”.

As for “QVQLVESGRGLVEAGGSLRLSCAASGFIFLPYAMVWYRQAPGKERELVAAITRGGRTYYADSVNRRFTISRDNAKNTVYLQMNSLKPEDTAVYDCAATTYLVWGYNYWGQGTQVTVSS”, the “polyreactivity (PSR sort gate)” value is “low polyreactivity”.

For “QVQLVESGRGLVQAGASLRLSCAASGRTFPYYARGRYRQAPGKERELVAAITTGGSTNYADSVKGRFTISRDNAKNTVYLQMNRLKPEDTAVYYCAKRFYRSRLNYYYWGQGTQVTVSS”, the “polyreactivity (PSR sort gate)” value was “high polyreactivity”.

On to “QVQLVESGRGLVQAGGSLRISCASSGNTFVYNPMGWYRQAPGKERELVAAIDSGGSTNYADSVKGRFTISRDNAKNTVYLQMNSLKPEDTAVYYCNRTSVYDYYWGQGTQGTVSS”, for which the “polyreactivity (PSR sort gate)” value is “low polyreactivity”.

On to “QVQLVESGRGLVQAGGSLRLSCAASASTFTLNTMGWYREAAGKERELVAAITASGGRTFYADSVKGPFTISRDNANNTVYLQMTSLKPEDTAFYYCAKRPYGWVSRYDYWGQVTQVTVSS”, for which the “polyreactivity (PSR sort gate)” value is reported as “low polyreactivity”.

For “QVQLVESGRGLVQAGGSLRLSCAASGFIFGGYAMGWYRQAPGKERELVAAISRSGGSTYYADSVKGRFTISRDNAKNTVYLQMNSLKPEDTAVYYCAAKFWPEDHRLDYWGQGTQVTVSS”, the “polyreactivity (PSR sort gate)” value was “low polyreactivity”.
